Apoptotic cell death, 51Cr release from transfected Ba/F3 cells (in the presence of control IgG1), proliferation of CD4+ T cells in the presence of CD32/CD58/CD80 feeder L cells and proliferation of CD8+ T cells in the presence of CD32 feeder L cells data for two substances are collected here from patent US20070178093A1.

For test [1], the target named is fusion protein comprising the extracellular domain of hTEASR and the cytoplasmic region of Fas, expressed on Ba/F3 cells (human) (UniProt Q9Y5U5). As to the kind of experiment: cell-based or functional assay.
For test [2], the target named is human glucocorticoid-induced tumor necrosis factor family-related receptor (TEASR) (human) (UniProt Q9Y5U5). As to the kind of experiment: cell-based or functional assay.

Consider “human TEASR ligand (TEASR-L) (from UniProt Q9UNG2 1-177)”, for which, in test [1], the apoptotic cell death, 51Cr release from transfected Ba/F3 cells (in the presence of control IgG1) amounted to 23 % release.

For the substance “hTEASR-L-Ig fusion protein (from UniProt Q9UNG2 49-177) (Fc fusion)”, in test [2], the proliferation of CD4+ T cells in the presence of CD32/CD58/CD80 feeder L cells was determined as 2.5 fold and the proliferation of CD8+ T cells in the presence of CD32 feeder L cells stood at 5.6 fold.
